Experimental data: patent US20230192789A1, “STRUCTURALLY-STABILIZED AND HDMX-SELECTIVE P53 PEPTIDES AND USES THEREOF” (Dana-Farber Cancer Institute, Inc., priority 2020, published 2023)
Entries after “also recorded” stand apart in the source; their conditions may differ. Each block holds one molecule with its values, some of them ahead of it. Bridges are numbered along the chain shown (N, C = ends). Where no end group is shown, it is not given here. [ ]: non-standard residue; d: D form. The star is where a group is joined. Biotin = O=C1N[C@H]2[C@H](CS[C@H]2CCCCC(=O)*)N1; R8 = C=CCCCCCC[C@@](C)(N)C(=O)O; S5 = C=CCCC[C@](C)(N)C(=O)O

What was measured:
EOL-1 cells = assay: LDH release assay, EOL-1; format: cell-based; settings: EOL-1, 90 minutes after peptide treatment, highest dosing level
Procedure: (§1) LDH release assay: To assess the release of lactate dehydrogenase (LDH) upon treatment with a structurally-stabilized peptide described herein, an LDH release assay can be used. Cultured cells, including, e.g., cancer cells and HUVEC cells, are plated in 96-well format (2x10^4 cells per well; including overnight incubation for adherent cells) and then treated with serial dilutions of structurally-stabilized peptides in a final volume of 100 µL and incubated at 37° C. for the indicated time period (e.g., 90 minutes). The plates are spun down at 1500 rpm for 5 minutes at 4° C., and 80 µL of cell culture media is transferred to a clear plate (Corning), incubated with 80 µL of LDH reagent (Roche) for 15 minutes while shaking, and absorbance is measured at 490 nm on a microplate reader (SpectraMax M5 Microplate Reader, Molecular Devices).
(§2) LDHRelease Assay: OCI-AML2 cells (1 × 10^4 cells/well) were plated in 96-well plates and treated with the indicated peptides or vehicle (0.2% DMSO). After 1.5 hours incubation at 37° C., 100 µl of cell medium was transferred to a 96-well clear plate and incubated with 100 µl of LDH reagent (Roche) for 25 minutes while shaking, and absorbance at 490 nm measured on a microplate reader (SpectraMax M5 Microplate Reader, Molecular Devices).

[1] = target: T1, recombinant HDMX (amino acids 1-490 of SEQ ID NO:104) (Homo sapiens, UniProt O15151); assay: Competitive streptavidin pull-down of biotinylated peptides with 1:1 recombinant HDM2/HDMX mixture, HDMX western; format: binding; settings: biotinylated stapled peptide, 1:1 mixture of recombinant HDM2 and HDMX
T1 construct: thioredoxin (N, cleaved yes); S tag (N, cleaved yes); hexahistidine (N, cleaved yes); made in house; host or cells: E. coli (inferred: pET32-LIC vector, handled as described for HDM2 in BL21(DE3))
T1 sequence (O15151 1-490): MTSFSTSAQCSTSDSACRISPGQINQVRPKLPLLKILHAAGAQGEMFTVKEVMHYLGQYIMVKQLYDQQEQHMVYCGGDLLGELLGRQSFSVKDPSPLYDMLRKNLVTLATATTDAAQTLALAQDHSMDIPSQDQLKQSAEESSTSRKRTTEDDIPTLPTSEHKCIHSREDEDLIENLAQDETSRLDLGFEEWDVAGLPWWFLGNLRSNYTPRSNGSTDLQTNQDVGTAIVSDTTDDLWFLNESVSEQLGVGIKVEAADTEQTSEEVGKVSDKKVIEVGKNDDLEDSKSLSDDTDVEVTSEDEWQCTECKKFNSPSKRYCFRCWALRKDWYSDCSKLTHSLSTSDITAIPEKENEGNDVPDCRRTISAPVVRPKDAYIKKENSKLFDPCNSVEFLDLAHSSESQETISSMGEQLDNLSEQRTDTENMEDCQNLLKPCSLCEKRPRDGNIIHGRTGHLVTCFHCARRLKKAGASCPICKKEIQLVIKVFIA

OCI-AML2 cells [2] = assay: Cell viability (CellTiter-Glo), OCI-AML2; settings: OCI-AML2, 48 and 72 hours of treatment, acetylated stapled peptide
OCI-AML2 cells [3] = assay: LDH release assay, OCI-AML2; format: cell-based; settings: OCI-AML2, 90 minutes after peptide treatment, highest dosing level
Procedure: as §1, §2

EOL-1 cancer cells = assay: Cell viability, EOL-1; settings: EOL-1, 48 and 72 hours of treatment, acetylated stapled peptide
native HDM2 = target: T2, native HDM2 (Homo sapiens, UniProt Q00987); assay: Streptavidin pull-down from cancer cell lysates, HDM2 western; format: binding
T2 construct: in the context of the native proteins from cancer cell lysates; endogenous in cells; host or cells: EOL-1, OCI-AML2, SJSA-X cell lysates
Procedure: (§3) In order to determine if the insights gleaned from the biochemical and structural analyses (Examples 1 and 2, above) informed the development of a stapled p53 peptide with high fidelity selectivity for native HDMX from cells, binding assays were performed using cellular lysates from both hematologic (FIG. 16A) and solid (FIG. 16B) cancers.
(§4) Streptavidin Pull-Down - Cell Lysates: Cultured cells were trypsinized, washed once with cold PBS, and lysed on ice for 30 minutes in lysis buffer (0.5% NP-40, 150 mM NaCl, 50 mM Tris pH 7.4). Protein concentration of the isolated supernatant was determined by Bradford reagent. Lysate samples (2 mg) were incubated with vehicle (0.6% DMSO) or biotinylated peptides (15 nmole) overnight in lysis buffer at 4° C. […] Bead-bound proteins were eluted by addition of 50 µl 2x LDS supplemented with DTT and boiling for 10 minutes. Eluted proteins were then subjected to electrophoresis and western blotting using HDM2 (IF2, EMD Millipore, 1:200) and MDM4 (A300-287A; Bethyl Laboratories, 1:1000) antibodies.

native HDMX = target: T3, native HDMX (Homo sapiens, UniProt O15151); assay: Streptavidin pull-down from cancer cell lysates, HDMX western; format: binding
T3 construct: high fidelity selectivity for native HDMX from cells; endogenous in cells; host or cells: EOL-1 and OCI-AML2 lysates (endogenous); SJSA-X lysates (cells engineered to express HDMX)
T3 sequence (O15151 1-490): T1 sequence (O15151 1-490)
Procedure: as §3, §4

[4] = tested on: wild-type, Y99F, and Y99A HDMX (full-length); assay: Streptavidin pull-down with wild-type, Y99F and Y99A HDMX proteins; settings: biotinylated peptide, full-length HDMX proteins incubated individually, HDMX western
[5] = target: T4, recombinant HDM2 (amino acids 17-125 of SEQ ID NO:103) (Homo sapiens, UniProt Q00987); assay: Competitive streptavidin pull-down of biotinylated peptides with 1:1 recombinant HDM2/HDMX mixture, HDM2 western; format: binding; settings: biotinylated stapled peptide, 1:1 mixture of recombinant HDM2 and HDMX
T4 construct: hexahistidine (N); thrombin cleavage site (N); made in house; host or cells: BL21(DE3) E. coli
Procedure: For these studies, biotinylated peptides were incubated with a 1:1 mixture of recombinant HDM2 (amino acids 17-125 of SEQ ID NO: 103) and HDMX (amino acids 1-490 of SEQ ID NO: 104), followed by streptavidin pull-down and HDM2 and HDMX Western analyses. […] .

[6] = target: T5, recombinant HDM2 (amino acids 17-125 of SEQ ID NO:103) (human, UniProt Q00987 17-125); assay: isothermal titration calorimetry, peptide titrated into HDM2
T5 construct: also called MDM2; not shown: thrombin cleavage site (pET28a vector)

[7] = target: T5, recombinant HDM2 (amino acids 17-125 of …); assay: fluorescence polarization, FITC-labelled peptide titrated with HDM2
[8] = target: T5, recombinant HDM2 (amino acids 17-125 of …); assay: isothermal titration calorimetry, peptide titrated into HDM2; remark: listed apart in the source
[9] = target: T5, recombinant HDM2 (amino acids 17-125 of …); assay: streptavidin pull-down of biotinylated peptide with recombinant HDM2 and HDMX (1:1 mixture per paragraph 301), western blot
[10] = EOL-1, OCI-AML2, and SJSA-X cancer cell lysates
[11] = EOL-1 and OCI-AML2 leukemia cell lysates, biotinylated peptide
[12] = SJSA-X osteosarcoma cell lysates, biotinylated peptide

HDMX versus HDM2 binding selectivity [1]: selectivity to HDMX
Molecule: COC(=O)CC[C@@H]1NC(=O)[C@H](CCC(N)=O)NC(=O)[C@H](C)NC(=O)[C@H](Cc2c[nH]c3ccccc23)NC(=O)[C@H](Cc2ccc(O)cc2)NC(=O)[C@H](CCC(=O)O)NC(=O)[C@](C)(NC(=O)[C@H](Cc2ccccc2)NC(=O)[C@@H](NC(=O)[C@H](CC(C)C)NC(C)=O)[C@@H](C)O)CCCCCCC=CCCC[C@@](C)(C(=O)N[C@@H](CO)C(=O)N[C@@H](C)C(=O)N[C@@H](C)C(N)=O)NC1=O [ATSP-7041 B26E(OMe), LTF8EYWAQ#XSAA]
non-specific membrane disruption (LDH release) (EOL-1 cells): no non-specific membrane disruptive activity
cancer cell cytotoxicity (OCI-AML2 cells [2]): dose-responsive cancer cell cytotoxicity; also recorded: enhance killing activity
non-specific membrane disruption (LDH release) (OCI-AML2 cells [3]): no non-specific membrane disruptive activity
cancer cell cytotoxicity (EOL-1 cancer cells): dose-responsive cancer cell cytotoxicity; also recorded: enhance killing activity

Molecule: CC(=O)N[C@@H](CC(C)C)C(=O)N[C@H](C(=O)N[C@@H](Cc1ccccc1)C(=O)N[C@]1(C)CCCCCCC=CCCC[C@@](C)(C(=O)N[C@@H](CO)C(=O)N[C@@H](C)C(=O)N[C@@H](C)C(N)=O)NC(=O)[C@H](CCC(=O)O)NC(=O)[C@H](CCC(N)=O)NC(=O)[C@H](C)NC(=O)[C@H](Cc2c[nH]c3ccccc23)NC(=O)[C@H](Cc2ccc(O)cc2)NC(=O)[C@H](CCC(=O)O)NC1=O)[C@@H](C)O [ATSP-7041 B26E, LTF8EYWAQEXSAA]
non-specific membrane disruption (LDH release) (EOL-1 cells): no non-specific membrane disruptive activity
non-specific membrane disruption (LDH release) (OCI-AML2 cells [3]): no non-specific membrane disruptive activity

Molecule: QSQQTF8NLWRLEXQN (QSQQTF[R8]NLWRLE[S5]QN; staple 7-14) [SAH-p53-8 L26E]
HDMX interaction [1]: robust HDMX-binding activity
HDMX versus HDM2 binding selectivity [1]: exquisite binding selectivity for HDMX; also recorded: HDMX-selective
native HDM2 binding (native HDM2; [10]): markedly impaired or abrogated
native HDM2 binding (native HDM2; [11]): abrogates HDM2 binding
native HDM2 binding (native HDM2; [12]): impairs HDM2 interaction
native HDMX binding (native HDMX; [10]): preserved
native HDMX binding (native HDMX; [11]): selective interaction with HDMX
native HDMX binding (native HDMX; [12]): predominant HDMX interaction
interaction with Y99F and Y99A HDMX [4]: significantly impaired; also recorded: markedly impair interaction

Molecule: QSQQTF8NLWRLLXQN [SAH-p53-8, reference compound]
HDMX versus HDM2 binding selectivity [1]: dual-targeting HDM2/HDMX
native HDM2 binding (native HDM2; [10]): effectively engaged
native HDM2 binding (native HDM2; [11]): binds
native HDM2 binding (native HDM2; [12]): binds
native HDMX binding (native HDMX; [10]): effectively engaged
native HDMX binding (native HDMX; [11]): binds
native HDMX binding (native HDMX; [12]): binds
interaction with Y99F and Y99A HDMX [4]: retained interaction; also recorded: effectively bind

HDM2 interaction [5]: especially robust HDM2 interaction
HDMX interaction [1]: HDMX binding
HDMX versus HDM2 binding selectivity [1]: restored dual HDM2/HDMX interaction
HDMX versus HDM2 binding selectivity ([1]; listed as SEQ ID NO:47): selectivity to HDM2
Molecule: SAH-p53-4 K24E/E28A: Formula (I) stapled peptide: [Xaa]w LSQETF, [Xaa]x DLWELL, [Xaa]y AN (LSQETF[R8]DLWELL[S5]AN-NH2; staple 7-14; not fully specified (N-terminus))

Kd [6]: 20.4 nM
Kd [7]: 12 nM
B1: SAH-p53-4 (peptide)
peptide: LSQETF[R8]DLWKLL[S5]EN
modifications: staple 7-14; also: N-terminus biotin, acetyl or FITC depending on assay
notes: One entry for the peptide; also called wild-type SAH-p53-4; LSQETF8DLWKLLXEN

Kd [8]: 256 nM
Kd [7]: 149 nM
Molecule: LSQETF[R8]DLWKLE[S5]EN (staple 7-14; also: N-terminus biotin, acetyl or FITC depending on assay) [SAH-p53-4 L26E]

binding result [9]: no binding
Molecule: Biotin-QSQQTF[R8]NLWRLE[S5]QN-NH2 (staple 7-14, also called QSQQTF8NLWRLEXQN) [SAH-p53-8 L26E]
